# According to patent US7575883:
# B1: recombinant GST-SIRT2 (protein)
# chain: MAEPDPSHPLETQAGKVQEAQDSDSDSEGGAAGGEADMDFLRNLFSQTLSLGSQKERLLDELTLEGVARYMQSERCRRVICLVGAGISTSAGIPDFRSPSTGLYDNLEKYHLPYPEAIFEISYFKKHPEPFFALAKELYPGQFKPTICHYFMRLLKDKGLLLRCYTQNIDTLERIAGLEQEDLVEAHGTFYTSHCVSASCRHEYPLSWMKEKIFSEVTPKCEDCQSLVKPDIVFFGESLPARFFSCMQSDFLKVDLLLVMGTSLQVQPFASLISKAPLSTPRLLINKEKAGQSDPFLGMIMGLGGGMDFDSKKAYRDVAWLGECDQGCLALAELLGWKKELEDLVRREHASIDAQSGAGVPNPSTSASPKKSPPPAKDEARTTEREKPQ
# B2: cell derived SIRT3-GFP (pull down from 293T cell extracts) (protein)
# chain: MAFWGWRAAAALRLWGRVVERVEAGGGVGPFQACGCRLVLGGRDDVSAGLRGSHGARGEPLDPARPLQRPPRPEVPRAFRRQPRAAAPSFFFSSIKGGRRSISFSVGASSVVGSGGSSDKGKLSLQDVAELIRARACQRVVVMVGAGISTPSGIPDFRSPGSGLYSNLQQYDLPYPEAIFELPFFFHNPKPFFTLAKELYPGNYKPNVTHYFLRLLHDKGLLLRLYTQNIDGLERVSGIPASKLVEAHGTFASATCTVCQRPFPGEDIRADVMADRVPRCPVCTGVVKPDIVFFGEPLPQRFLLHVVDFPMADLLLILGTSLEVEPFASLTEAVRSSVPRLLINRDLVGPLAWHPRSRDVAQLGDVVHGVESLVELLGWTEEMRDLVQRETGKLDGPDK
# B3: recombinant GST-SIRT3 (fragment of human SIRT3 lacking the first 100 amino acids of the N-terminus) (protein)
# chain: SISFSVGASSVVGSGGSSDKGKLSLQDVAELIRARACQRVVVMVGAGISTPSGIPDFRSPGSGLYSNLQQYDLPYPEAIFELPFFFHNPKPFFTLAKELYPGNYKPNVTHYFLRLLHDKGLLLRLYTQNIDGLERVSGIPASKLVEAHGTFASATCTVCQRPFPGEDIRADVMADRVPRCPVCTGVVKPDIVFFGEPLPQRFLLHVVDFPMADLLLILGTSLEVEPFASLTEAVRSSVPRLLINRDLVGPLAWHPRSRDVAQLGDVVHGVESLVELLGWTEEMRDLVQRETGKLDGPDK
# Target: chemically acetylated cytochrome c
Protein,"deacetylation activity, tritiated acetate release assay in vitro, with and without NAD","deacetylation activity, 14C-nicotinamide release assay in vitro"
B1,recombinant GST-SIRT2 deacetylates cytochrome c in a NAD dependent manner,
B2,,cell derived SIRT3 deacetylates cytochrome c
B3,recombinant GST-SIRT3 deacetylates cytochrome c in a NAD dependent manner,
